Measurements reported in article PMC12241816.

Target: T1, recombinant KDM5B (human), Q9UGL1
T1 chain: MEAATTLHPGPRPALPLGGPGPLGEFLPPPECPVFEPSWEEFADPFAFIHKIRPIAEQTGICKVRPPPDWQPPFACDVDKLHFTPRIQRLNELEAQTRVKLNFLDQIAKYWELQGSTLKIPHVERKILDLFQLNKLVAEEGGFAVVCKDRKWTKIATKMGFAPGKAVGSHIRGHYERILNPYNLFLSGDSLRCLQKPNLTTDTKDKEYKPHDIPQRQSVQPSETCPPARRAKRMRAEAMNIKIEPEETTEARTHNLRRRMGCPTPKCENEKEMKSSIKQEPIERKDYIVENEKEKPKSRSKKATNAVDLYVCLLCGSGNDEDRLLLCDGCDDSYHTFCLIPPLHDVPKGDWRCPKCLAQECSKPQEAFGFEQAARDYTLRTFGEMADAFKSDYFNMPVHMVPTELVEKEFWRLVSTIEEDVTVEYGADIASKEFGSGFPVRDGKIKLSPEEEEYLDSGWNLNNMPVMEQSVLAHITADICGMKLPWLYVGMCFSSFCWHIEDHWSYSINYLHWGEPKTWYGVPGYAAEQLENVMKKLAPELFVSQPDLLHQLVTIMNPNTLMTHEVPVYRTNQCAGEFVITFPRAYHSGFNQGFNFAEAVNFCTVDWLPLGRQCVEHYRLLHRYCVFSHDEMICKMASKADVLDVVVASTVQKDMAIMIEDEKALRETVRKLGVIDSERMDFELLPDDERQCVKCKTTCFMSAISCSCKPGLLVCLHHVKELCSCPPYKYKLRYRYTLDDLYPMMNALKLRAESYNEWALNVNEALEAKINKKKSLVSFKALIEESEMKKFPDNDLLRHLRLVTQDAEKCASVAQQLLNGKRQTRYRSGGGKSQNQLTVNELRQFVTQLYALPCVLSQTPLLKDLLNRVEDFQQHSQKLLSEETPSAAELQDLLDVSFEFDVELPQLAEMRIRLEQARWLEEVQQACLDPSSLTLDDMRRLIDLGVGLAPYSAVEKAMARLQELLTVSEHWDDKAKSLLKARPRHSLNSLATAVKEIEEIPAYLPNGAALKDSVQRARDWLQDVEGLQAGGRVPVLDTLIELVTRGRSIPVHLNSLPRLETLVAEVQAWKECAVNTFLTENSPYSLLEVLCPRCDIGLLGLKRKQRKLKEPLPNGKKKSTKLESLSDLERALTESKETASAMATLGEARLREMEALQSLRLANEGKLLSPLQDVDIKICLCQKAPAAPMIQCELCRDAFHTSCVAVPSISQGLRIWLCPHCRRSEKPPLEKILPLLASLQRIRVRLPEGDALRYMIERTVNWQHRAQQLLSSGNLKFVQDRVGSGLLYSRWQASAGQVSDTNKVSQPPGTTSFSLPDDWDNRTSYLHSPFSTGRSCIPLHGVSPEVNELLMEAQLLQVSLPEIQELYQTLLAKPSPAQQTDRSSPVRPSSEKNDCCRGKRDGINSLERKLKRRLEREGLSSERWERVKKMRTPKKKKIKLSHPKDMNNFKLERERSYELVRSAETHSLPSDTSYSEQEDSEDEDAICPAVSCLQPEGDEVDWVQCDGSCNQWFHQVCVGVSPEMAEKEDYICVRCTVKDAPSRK
Experiment: native gel or EMSA
Details: remark: other sources report otherwise

- stoichiometry N: 2
B1: recombinant KDM5B, Q9UGL1 1-1544 (natural protein)
chain: T1 chain
